In the supplement of paper PMC9233669:
Fewer inactive variants are shown than the library holds.

Assays:
biotinyl-Phe-oxazolone = assay: self-aminoacylation, catalytic enhancement (BFO) (fold over background); higher = more active; k-Seq, kA / k0A0; sequences stand for … in GGGAAUGGAUCCACAUCUACGAAUUC…UUCACUGCAGACUUGACGAAGCUG
Procedure, shortened: (§1)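 Mutagenized RNA pools with a 21-nt variable region (0.43 μM) reacted with each biotinyl-aminoacyl-oxazolone at 2–1250 μM. Reactions ran in 50 μL HEPES/NaCl/KCl/MgCl2/CaCl2 buffer with 5% acetonitrile, pH 6.9–7.0, for 90 minutes at room temperature. Streptavidin-captured RNA was quantified by triplicate qPCR and Illumina sequencing, and per-sequence fraction reacted was fit to a pseudo-first-order model with 1000 bootstraps. Catalytic enhancement is median kA divided by the uncatalyzed rate, the low-activity peak of a bimodal Gaussian fit.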

biotinyl-Ile-oxazolone = assay: self-aminoacylation, catalytic enhancement (BIO) (fold over background); higher = more active; k-Seq, kA / k0A0; sequences stand for … in GGGAAUGGAUCCACAUCUACGAAUUC…UUCACUGCAGACUUGACGAAGCUG
Procedure, shortened: as §1

biotinyl-Met-oxazolone = assay: self-aminoacylation, catalytic enhancement (BMO) (fold over background); higher = more active; k-Seq, kA / k0A0; sequences stand for … in GGGAAUGGAUCCACAUCUACGAAUUC…UUCACUGCAGACUUGACGAAGCUG
Procedure, shortened: as §1

biotinyl-Val-oxazolone = assay: self-aminoacylation, catalytic enhancement (BVO) (fold over background); higher = more active; k-Seq, kA / k0A0; sequences stand for … in GGGAAUGGAUCCACAUCUACGAAUUC…UUCACUGCAGACUUGACGAAGCUG
Procedure, shortened: as §1

biotinyl-Leu-oxazolone = assay: self-aminoacylation, catalytic enhancement (BLO) (fold over background); higher = more active; k-Seq, kA / k0A0; sequences stand for … in GGGAAUGGAUCCACAUCUACGAAUUC…UUCACUGCAGACUUGACGAAGCUG
Procedure, shortened: as §1

biotinyl-Trp-oxazolone = assay: self-aminoacylation, catalytic enhancement (BWO) (fold over background); higher = more active; k-Seq, kA / k0A0; sequences stand for … in GGGAAUGGAUCCACAUCUACGAAUUC…UUCACUGCAGACUUGACGAAGCUG
Procedure, shortened: as §1

Sequence	self-aminoacylation (biotinyl-Phe-oxazolone)	self-aminoacylation (biotinyl-Ile-oxazolone)	self-aminoacylation (biotinyl-Met-oxazolone)	self-aminoacylation (biotinyl-Val-oxazolone)	self-aminoacylation (biotinyl-Leu-oxazolone)	self-aminoacylation (biotinyl-Trp-oxazolone)
CUAUUUCAAAAAAUCGGUCUG [Fam1A.1 aminoacylation ribozyme variant]	2.31	1.13	1	0.85	1.18	1.73
CUAUUUCAAACAACCGGUCUG [Fam1A.1 aminoacylation ribozyme variant]	0.87	0.992	0.85	0.861	0.844	0.827
CUAUUUCAAACAAUCGGACUG [Fam1A.1 aminoacylation ribozyme variant]	1.93	0.976	0.82	0.733	0.803	1.12
CUAUUUCAAACAAUGGGUCUG [Fam1A.1 aminoacylation ribozyme variant]	0.641	0.924	0.836	0.81	0.863	0.802
CUAUUUCAAACAAUUGGUCUG [Fam1A.1 aminoacylation ribozyme variant]	0.87	1.01	0.994	0.873	0.929	0.736
CUAUUUCAAACAGUCGGUCUG [Fam1A.1 aminoacylation ribozyme variant]	0.588	0.827	0.859	0.8	0.843	0.682
CUAUUUCGAACAAUCGGUCUG [Fam1A.1 aminoacylation ribozyme variant]	0.664	0.814	0.799	0.793	0.697	0.67
CUCCUUCAAACAAGCGGUCUG [Fam1A.1 aminoacylation ribozyme variant]	0.811	0.98	0.734	0.83	0.774	1.25
CUCCUUCAAACAAUCCGUCUG [Fam1A.1 aminoacylation ribozyme variant]	1.24	1.03	0.657	0.949	0.659	1.25
CUCCUUCAAACAUUCGGUCUG [Fam1A.1 aminoacylation ribozyme variant]	3.15	1.24	1.31	1.32	1.05	1.66
CUCCUUCAAACGAUCGGUCUG [Fam1A.1 aminoacylation ribozyme variant]	1.86	0.833	0.833	0.925	1.21	2.2
CUCCUUCAAACUAUCGGUCUG [Fam1A.1 aminoacylation ribozyme variant]	1.92	1.14	1.17	1.15	0.895	1.5
CUCCUUCAUACAAUCGGUCUG [Fam1A.1 aminoacylation ribozyme variant]	0.839	0.652	0.609	0.664	0.771	0.794
CUCUUUCAAACAAUCGGUCUG [Fam1A.1 aminoacylation ribozyme variant]	14.2	0.972	1.13	0.908	1.21	9.95
CUGCACCUAGGUCAUCGGGUG [Fam2.2 aminoacylation ribozyme variant]	60	3.76	7.52	5.11	7.81	6.48
CUGCUUCAAACAAUAGGUCUG [Fam1A.1 aminoacylation ribozyme variant]	0.781	0.621	0.551	0.669	0.547	0.575
CUGCUUCAAACAAUCGGUCCG [Fam1A.1 aminoacylation ribozyme variant]	119	1.35	1.34	1.38	2.38	39.6
CUGCUUCAAACAAUCUGUCUG [Fam1A.1 aminoacylation ribozyme variant]	4.03	0.604	0.675	0.701	0.647	1.53
CUGCUUCAAACAAUUGGUCUG [Fam1A.1 aminoacylation ribozyme variant]	1.54	0.789	0.715	0.657	0.726	1.19
CUGCUUCAAACGAUCGGUCUG [Fam1A.1 aminoacylation ribozyme variant]	2.63	0.727	0.991	0.803	1.11	3.49
CUGCUUCAGACAAUCGGUCUG [Fam1A.1 aminoacylation ribozyme variant]	1.78	0.949	1.22	0.929	1.1	1.28
CUGCUUGAAACAAUCGGUCUG [Fam1A.1 aminoacylation ribozyme variant]	0.928	0.9	0.842	0.959	0.867	1.07
CUUAACCUAGGUCAUCGGGUG [Fam2.2 aminoacylation ribozyme variant]	15.8	2.91	4.25	2.69	4.78	4.21
CUUAACCUGGUCAUCGAGUGA [Fam2.1 aminoacylation ribozyme variant]	5.1	2.9	5.64	3.11	4.95	6.88
CUUACCCCGGUCAUCGAGUGA [Fam2.1 aminoacylation ribozyme variant]	19.8	3.44	6.51	3.92	6.2	6.76
CUUACCCUGAUCAUCGAGUGA [Fam2.1 aminoacylation ribozyme variant]	16.5	3.64	7.49	3.94	7.51	9.22
